Assay results taken from patent publication US20160264649A1.

What was measured:
Test in all cases: cell-based or functional assay
[1] = biological target: HIV-1 TR0.11 Env (HIV-1)
[2] = biological target: HIV-1 PVO.4 Env (HIV-1)
[3] = biological target: HIV-1 ZM249 Env (HIV-1)
[4] = biological target: HIV-1 ADA Env (HIV-1)
[5] = biological target: HIV-1 ZM214 Env (HIV-1)
[6] = biological target: HIV-1 THRO.18 Env (HIV-1)
[7] = biological target: HIV-1 92RW020 Env (HIV-1)
[8] = biological target: HIV-1 DU156 Env (HIV-1)
[9] = biological target: HIV-1 AC10 Env (HIV-1)
[10] = biological target: HIV-1 DU422 Env (HIV-1)
[11] = biological target: HIV-1 Du172 Env (HIV-1)
[12] = biological target: HIV-1 ZM233 Env (HIV-1)
[13] = biological target: HIV-1 JR-CSF Env Y318A (HIV-1) (UniProt P20871)
[14] = biological target: HIV-1 REJ04541 Env (HIV-1)
[15] = biological target: HIV-1 CAAN Env (HIV-1)
[16] = biological target: HIV-1 JR-FL Env E168K (HIV-1)
[17] = biological target: HIV-1 CAP45 Env (HIV-1)
[18] = biological target: HIV-1 JR-CSF Env (wild-type) (HIV-1) (UniProt P20871)
[19] = biological target: MuLV envelope (control pseudovirus)
[20] = biological target: HIV-1 JR-CSF Env I309A (HIV-1) (UniProt P20871)

Binder | IC50, TZM-bl pseudovirus neutralization [1] | IC50, TZM-bl pseudovirus neutralization [2] | IC50, TZM-bl pseudovirus neutralization [3] | IC50, TZM-bl pseudovirus neutralization [4] | IC50, TZM-bl pseudovirus neutralization [5] | IC50, TZM-bl pseudovirus neutralization [6] | IC50, TZM-bl pseudovirus neutralization [7] | IC50, TZM-bl pseudovirus neutralization [8] | IC50, TZM-bl pseudovirus neutralization [9] | IC50, TZM-bl pseudovirus neutralization [10] | IC50, TZM-bl pseudovirus neutralization [11] | IC50, TZM-bl pseudovirus neutralization [12] | IC50, TZM-bl pseudovirus neutralization [13] | IC50, TZM-bl pseudovirus neutralization [14] | IC50, TZM-bl pseudovirus neutralization [15] | IC50, TZM-bl pseudovirus neutralization [16] | IC50, TZM-bl pseudovirus neutralization [17] | IC50, TZM-bl pseudovirus neutralization [18] | IC50, TZM-bl pseudovirus neutralization [19] | IC50, TZM-bl pseudovirus neutralization [20]
1503_H05 (PG16) (TCN-119) (antibody, V domains shown) VH: QEKLVESGGGVVQPGGSLRLSCLASGFTFHKYGMHWVRQAPGKGLEWVALISDDGMRKYHSDSMWGRVTISRDNSKNTLYLQFSSLKVEDTAMFFCAREAGGPIWHDDVKYYDFNDGYYNYHYMDVWGKGTIVTVSS VL: QSALTQPASVSGSPGQTITISCNGTRSDVGGFDSVSWYQQSPGKAPKVMVFDVSHRPSGISNRFSGSKSGNTASLTISGLHIEDEGDYFCSSLTDRSHRIFGGGTKVTVLG | 4.3 µg/mL | 11 µg/mL | < 0.01 µg/mL | 0.003 µg/mL | > 25 µg/mL | 4.12 µg/mL | 0.02 µg/mL | < 0.01 µg/mL | < 0.01 µg/mL | 0.71 µg/mL | < 0.01 µg/mL | < 0.01 µg/mL | > 1 µg/mL | 0.22 µg/mL | 13.5 µg/mL | 0.002 µg/mL | < 0.01 µg/mL | 0.001 µg/mL | > 25 µg/mL | > 1 µg/mL
1456_A12 (PG16) (TCN-117) (antibody, V domains shown) VH: HEQLVEAGGGVVQPGGSLRLSCLASGFTFHKYGMHWVRQAPGKGLEWVALISDDGMRKYHSDSMWGRVTISRDNSKNTLYLQFSSLRVEDTAMFFCAREAGGPIWHDDVKYYDFNDGYYNYHYMDVWGKGTKVTVSS VL: QSALTQPASVSGSPGQTITISCNGTSRDVGGFDSVSWYQQSPGKAPKVMVFDVSHRPSGMSNRFSGSKSGNTASLTISGLHIEDEGDYFCSSLTDRSHRIFGGGTKLTVLG | 3.05 µg/mL | 10.4 µg/mL | < 0.01 µg/mL | 0.005 µg/mL | > 25 µg/mL | 2.08 µg/mL | 0.05 µg/mL | < 0.01 µg/mL | < 0.01 µg/mL | 0.36 µg/mL | < 0.01 µg/mL | < 0.01 µg/mL | > 1 µg/mL | < 0.01 µg/mL | 10.6 µg/mL | 0.003 µg/mL | < 0.01 µg/mL | 0.001 µg/mL | > 25 µg/mL | > 1 µg/mL
1489_I13 (PG16) (TCN-120) (antibody, V domains shown) VH: QEQLLESGGGVVQPGGSLRLSCLASGFTFHKYGMHWVRQAPGKGLEWVALISDDGMRKYHSNSMWGRVTISRDNSKNTLYLQFSSLKVEDTAMFFCAREAGGPIWHDDVKYYDFNDGYYNYHYMDVWGKGTTVTVSS VL: QSALTQPASVSGSPGQTITISCNGTSSDVGGFDSVSWYQQSPGKAPKVMVFDVSHRPSGISNRFSGSKSGNTASLTISGLHIEDEGDYFCSSLTDRSHRIFGGGTKVTVLG | 10.9 µg/mL | 20.6 µg/mL | < 0.01 µg/mL | 0.008 µg/mL | > 25 µg/mL | 7.41 µg/mL | 0.03 µg/mL | < 0.01 µg/mL | < 0.01 µg/mL | 1.87 µg/mL | < 0.01 µg/mL | < 0.01 µg/mL | > 1 µg/mL | 0.34 µg/mL | 24.9 µg/mL | 0.005 µg/mL | < 0.01 µg/mL | 0.002 µg/mL | > 25 µg/mL | > 1 µg/mL
1469_M23 (PG16) (TCN-118) (antibody, V domains shown) VH: QEKLVESGGGVVQPGGSLRLSCLASGFTFHKYGMHWVRQAPGKGLEWVALISDDGMRKYHSDSMWGRVTISRDNSKNTLYLQFSSLKVEDTAMFFCAREAGGPIWHDDVKYYDFNDGYYNYHYMDVWGKGTTVTVSS VL: QSALTQPASVSGSPGQTITISCNGTRSDVGGFDSVSWYQQSPGRAPKVMVFDVSHRPSGISNRFSGSKSGNTASLTISGLHIEDEGDYFCSSLTDRSHRIFGGGTKLTVLG | 7.52 µg/mL | 21.2 µg/mL | < 0.01 µg/mL | 0.005 µg/mL | > 25 µg/mL | 7.01 µg/mL | 0.05 µg/mL | < 0.01 µg/mL | < 0.01 µg/mL | 0.97 µg/mL | < 0.01 µg/mL | < 0.01 µg/mL | > 1 µg/mL | 0.39 µg/mL | 17.7 µg/mL | 0.005 µg/mL | < 0.01 µg/mL | 0.002 µg/mL | > 25 µg/mL | > 1 µg/mL
